Results published in PMC11117730 (2024).
Where two headings read alike, the source gives them in different places. Blank lines part the entries; values can stand above or below the binder they belong to.

How the values were obtained:
Assay in all cases: SPR
mouse IL-33 = biological target: T1, mouse IL-33 (mouse, UniProt Q8BVZ5 1-266)
T1 chain: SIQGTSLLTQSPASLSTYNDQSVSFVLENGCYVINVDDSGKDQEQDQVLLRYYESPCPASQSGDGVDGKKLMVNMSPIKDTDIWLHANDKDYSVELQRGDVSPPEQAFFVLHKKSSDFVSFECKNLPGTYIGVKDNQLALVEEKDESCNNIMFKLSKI

anti-IL-17A = biological target: anti-IL-17A
anti-IL-17A-sST2 [1] = biological target: T2, anti-IL-17A-sST2 (mouse, UniProt P14719 27-332)
anti-IL-17A-sST2 [2] = biological target: T2, anti-IL-17A-sST2; remark: listed apart in the source

- koff (mouse IL-33): 0.000199 s⁻¹
B1: sST2-Fc (Fc fusion)
chain: SKSSWGLENEALIVRCPQRGRSTYPVEWYYSDTNESIPTQKRNRIFVSRDRLKFLPARVEDSGIYACVIRSPNLNKTGYLNVTIHKKPPSCNIPDYLMYSTVRGSDKNFKITCPTIDLYNWTAPVQWFKNCKALQEPRFRAHRSYLFIDNVTHDDEGDYTCQFTHAENGTNYIVTATRSFTVEEKGFSMFPVITNPPYNHTMEVEIGKPASIACSACFGKGSHFLADVLWQINKTVVGNFGEARIQEEEGRNESSSNDMDCLTSVLRITGVTEKDLSLEYDCLALNLHGMIRHTIRLRRKQPIDHR

- Kd (anti-IL-17A): 0.0265 nM
- koff (anti-IL-17A): 1.57e-05 s⁻¹
- Kd (anti-IL-17A-sST2 [1]): 0.0457 nM
- koff (anti-IL-17A-sST2 [1]): 2.17e-05 s⁻¹
B2: mouse IL-17A (protein)
chain: AAIIPQSSACPNTEAKDFLQNVKVNLKVFNSLGAKVSSRRPSDYLNRSTSPWTLHRNEDPDRYPSVIWEAQCRHQRCVNAEGKLDHHMNSVLIQQEILVLKREPESCPFTFRVEKMLVGVGCTCVASIVRQAA

- koff (anti-IL-17A-sST2 [2]): 0.000143 s⁻¹
B3: mouse IL-33 (ligand)
chain: MRPRMKYSNSKISPAKFSSTAGEALVPPCKIRRSQQKTKEFCHVYCMRLRSGLTIRKETSYFRKEPTKRYSLKSGTKHEENFSAYPRDSRKRSLLGSIQAFAASVDTLSIQGTSLLTQSPASLSTYNDQSVSFVLENGCYVINVDDSGKDQEQDQVLLRYYESPCPASQSGDGVDGKKLMVNMSPIKDTDIWLHANDKDYSVELQRGDVSPPEQAFFVLHKKSSDFVSFECKNLPGTYIGVKDNQLALVEEKDESCNNIMFKLSKI
